Assay results as given in IntAct's records for PubMed 19141279.

B1: Ras-related protein Rab-6A (Homo sapiens), P20340-1 (parent)
chain: MSTGGDFGNPLRKFKLVFLGEQSVGKTSLITRFMYDSFDNTYQATIGIDFLSKTMYLEDRTVRLQLWDTAGQERFRSLIPSYIRDSTVAVVVYDITNVNSFQQTTKWIDDVRTERGSDVIIMLVGNKTDLADKRQVSIEEGERKAKELNVMFIETSAKAGYNVKQLFRRVAAALPGMESTQDRSREDMIDIKLEKPQEQPVSEGGCSC
partner: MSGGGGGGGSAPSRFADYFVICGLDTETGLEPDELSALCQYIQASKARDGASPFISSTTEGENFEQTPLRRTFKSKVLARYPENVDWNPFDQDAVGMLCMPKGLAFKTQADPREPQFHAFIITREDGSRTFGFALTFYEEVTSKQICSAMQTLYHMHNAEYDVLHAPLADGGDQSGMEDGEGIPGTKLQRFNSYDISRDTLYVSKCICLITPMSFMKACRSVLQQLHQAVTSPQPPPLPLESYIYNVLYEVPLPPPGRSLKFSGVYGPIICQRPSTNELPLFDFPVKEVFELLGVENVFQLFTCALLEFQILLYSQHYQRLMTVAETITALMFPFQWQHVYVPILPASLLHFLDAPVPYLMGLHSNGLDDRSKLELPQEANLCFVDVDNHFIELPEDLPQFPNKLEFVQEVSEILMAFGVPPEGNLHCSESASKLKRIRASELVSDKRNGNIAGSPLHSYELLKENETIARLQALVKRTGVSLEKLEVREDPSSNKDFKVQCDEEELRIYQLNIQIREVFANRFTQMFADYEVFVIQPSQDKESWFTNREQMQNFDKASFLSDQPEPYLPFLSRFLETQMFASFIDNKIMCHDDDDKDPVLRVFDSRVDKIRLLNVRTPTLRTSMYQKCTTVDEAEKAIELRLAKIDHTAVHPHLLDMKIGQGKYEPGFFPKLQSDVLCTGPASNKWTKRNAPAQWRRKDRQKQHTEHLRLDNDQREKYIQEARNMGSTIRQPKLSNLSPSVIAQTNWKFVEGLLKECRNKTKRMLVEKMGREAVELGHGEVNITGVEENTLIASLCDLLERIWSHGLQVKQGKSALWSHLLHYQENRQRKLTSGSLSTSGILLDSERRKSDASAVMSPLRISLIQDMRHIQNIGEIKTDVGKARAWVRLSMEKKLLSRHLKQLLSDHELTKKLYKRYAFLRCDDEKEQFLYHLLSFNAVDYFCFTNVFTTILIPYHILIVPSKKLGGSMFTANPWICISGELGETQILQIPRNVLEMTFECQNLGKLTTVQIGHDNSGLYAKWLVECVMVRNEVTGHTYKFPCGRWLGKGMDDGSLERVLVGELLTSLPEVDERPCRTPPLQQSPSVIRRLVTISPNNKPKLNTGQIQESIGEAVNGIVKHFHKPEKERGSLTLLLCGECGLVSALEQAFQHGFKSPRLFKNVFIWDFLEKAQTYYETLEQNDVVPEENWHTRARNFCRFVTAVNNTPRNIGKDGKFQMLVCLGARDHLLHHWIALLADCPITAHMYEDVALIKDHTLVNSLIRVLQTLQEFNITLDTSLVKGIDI

Variants of: B1
Details: with den5a_mouse Dennd5a

Row | Variant | effect of a mutation on the interaction
1 | I46E | disrupting interaction
